Residue numbers refer to the chain shown, from its start.
B1: 368_B09 (antibody, V domains shown)
VH: EVQLLESGGGLVQPGGSLRLSCAASGFTFDSYGMNWVRQAPGKGLEWVSNINYNGGYKGYADSVKGRFTISRDNSKNTLYLQMNSLRAEDTAVYYCARGANWHDTHLDYWGQGTLVTVSS
VL: DIQMTQSPSSLSASVGDRVTITCRASQSILSYLNWYQQKPGKAPKLLIYAATSRHSGVPSRFSGSGSGTDFTLTISSLQPEDFATYYCQQSYDTPLTFGGGTKVEIK
notes: Group III
B2: 371_E06 (antibody, V domains shown)
VH: B1 VH with D30S, G33S, N50G, K58T, G59S, H106A
VL: B1 VL with L30S, S31T, A51V, R54L, D93E, T94S
notes: Group III
B3: 371_C04 (antibody, V domains shown)
VH: B1 VH with N50G, G55S, H106A
VL: B1 VL with H55A, D93S
notes: Group III
B4: 370_H07 (antibody, V domains shown)
VH: B1 VH with D30S, G33S, S49A, N50G, G59S, H106A
VL: B1 VL with R54L, H55A, Y92D, D93S, T94S
notes: Group III
B5: 368_F09 (antibody, V domains shown)
VH: B1 VH with D30S, N50G, G55S, K58T, G59S
VL: B1 VL with S31T, T52S, R54L, H55Q, D93E
notes: Group III
B6: 369_B05 (antibody, V domains shown)
VH: B1 VH with G33S, N50G, G59S
VL: B1 VL with L30I, R54L, H55A
notes: Group III
B7: 371_B03 (antibody, V domains shown)
VH: B1 VH with D30S, N35H, S49A, N50S, K58T, G59S
VL: B1 VL with L33V, A51T, H55A, T94N
notes: Group III
B8: 370_H02 (antibody, V domains shown)
VH: B1 VH with G33S, N50G, G55S, K58T, G59S
VL: B1 VL with S31T, H55A, D93E, T94S
notes: Group III
B9: 369_D03 (antibody, V domains shown)
VH: B1 VH with D30S, G33S, N50G, K58T, G59S
VL: B1 VL with S31T, L47V, H55A, D93E, T94N
notes: Group III
B10: 370_B03 (antibody, V domains shown)
VH: B1 VH with D30S, G33S, S49A, K58T, H106A
VL: B1 VL with L47V, H55A, D93N, T94N
notes: Group III
B11: 371_B09 (antibody, V domains shown)
VH: B1 VH with D30S, G33S, S49A, N50G, G55S, K58T
VL: B1 VL with L33V, L47V, A51T, R54L, H55A
notes: Group III
B12: 371_A10 (antibody, V domains shown)
VH: B1 VH with S31D, G33S, N50G, H106A
VL: B1 VL with L30V, L47V, H55A, D93E, T94N
notes: Group III
B13: 369_G08 (antibody, V domains shown)
VH: B1 VH with G33S, N50S
VL: not shown
notes: Group III
B14: 370_B12 (antibody, V domains shown)
VH: B1 VH with D30S, S31D, G33S, N50G, H106A
VL: B1 VL with L33V, L47V, A51T, H55A, D93E
notes: Group III
B15: 370_A02 (antibody, V domains shown)
VH: B1 VH with S49A, N50G, K58T, H106A
VL: B1 VL with L30V, S31T, L47V, H55A, T94S
notes: Group III
B16: 371_D02 (antibody, V domains shown)
VH: B1 VH with S31D, G33S, S49A, N50G, G59S, H106A
VL: B1 VL with L30V, S31T, H55A, T94S
notes: Group III
B17: 371_D04 (antibody, V domains shown)
VH: B1 VH with S31D, G33S, S49A, N50G, K58T
VL: B1 VL with L30V, L33V, R54L, H55A, D93E, T94N
notes: Group III
B18: 370_B11 (antibody, V domains shown)
VH: B1 VH with G33S, N50G, G55S, K58T, G59S
VL: B1 VL with L47V, S91G, T94L
notes: Group III
B19: 371_C12 (antibody, V domains shown)
VH: B1 VH with D30S, G33S, S49A, N50G, G55S, G59S
VL: B1 VL with L30V, L33V, H55A
notes: Group III
B20: 368_C08 (antibody, V domains shown)
VH: B1 VH with D30S, S31D, G33S, N50G, K58T, G59S
VL: B1 VL with S31T, L33V, T52S, R54L, H55Q, D93S
notes: Group III
B21: 368_H05 (antibody, V domains shown)
VH: B1 VH with D30S, G33S, S49A, G59S
VL: B1 VL with L30V, L33V, L47V, A51T, H55A, D93E, T94S
notes: Group III
B22: 371_B04 (antibody, V domains shown)
VH: B1 VH with D30S, G33S, N50G, G59S, H106A
VL: B1 VL with L47V, A51V, T94S
notes: Group III
B23: 369_C05 (antibody, V domains shown)
VH: B1 VH with G33S, S49A, N50G, K58T, G59S, H106A
VL: B1 VL with L30S, L33V, L47V, A51T, D93N, T94S
notes: Group III
B24: 370_D01 (antibody, V domains shown)
VH: B1 VH with D30S, G33S, N50S, K58T, H106A
VL: B1 VL with D93N
notes: Group III
B25: 369_D09 (antibody, V domains shown)
VH: B1 VH with D30S, S31D, K58T, G59S, H106A
VL: B1 VL with S31T, H55A, T94S
notes: Group III
B26: 369_E06 (antibody, V domains shown)
VH: B1 VH with D30S, N50G, K58T, G59S, H106A
VL: B1 VL with L30I, L47V, T94S
notes: Group III
B27: 369_A07 (antibody, V domains shown)
VH: B1 VH with D30S, G33S, S49A, N50G, H106A
VL: B1 VL with L47V, H55A, D93E, T94S
notes: Group III
B28: 370_D05 (antibody, V domains shown)
VH: B1 VH with S31D, G33S, H106A
VL: B1 VL with L30I, S31T, L47V
notes: Group III
B29: 370_F03 (antibody, V domains shown)
VH: B1 VH with D30S, N50S, G55S, G59S, H106A
VL: B1 VL with L33V, H55A, D93E, T94N
notes: Group III
B30: 371_B12 (antibody, V domains shown)
VH: B1 VH with D30S, S31D, G33S, S49A, N50G, G55S, K58T, G59S, H106A
VL: B1 VL with L30V, S31T, L47V, D93N, T94N
notes: Group III
B31: 369_D07 (antibody, V domains shown)
VH: B1 VH with D30S, N50G, G59S
VL: B1 VL with L30V, L47V, H55A, T94L
notes: Group III
B32: 371_C05 (antibody, V domains shown)
VH: B1 VH with D30S, S31D, N35H, S49A, K58T, H106A
VL: B1 VL with H55A, T94S
notes: Group III
B33: 371_C01 (antibody, V domains shown)
VH: B1 VH with D30S, N35H, N50S, K58T
VL: B1 VL with L30V, T94N
notes: Group III
B34: 368_E12 (antibody, V domains shown)
VH: B1 VH with D30S, S31D, S49A, N50G, K58T, G59S
VL: B1 VL with L30V, L33V, L47V, A51V, H55A, T94S
notes: Group III
B35: 368_H02 (antibody, V domains shown)
VH: B1 VH with D30S, S49A, N50G, G55S, K58T, G59S, H106A
VL: B1 VL with L30V, S31T, L47V, H55A, D93E, T94S
notes: Group III

How the values were obtained:
mouse ACVR2A = molecular target: T1, mouse ACVR2A (mouse, UniProt P27038 20-135, limits assumed); test: ELISA
T1 construct: coated antigen of the initial ELISA
T1 sequence (P27038 20-135 limits assumed): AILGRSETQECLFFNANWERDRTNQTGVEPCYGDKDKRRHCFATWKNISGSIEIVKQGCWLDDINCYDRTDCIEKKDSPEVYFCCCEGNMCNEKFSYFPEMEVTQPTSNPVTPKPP
Summary of the method: (§1)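 ELISA measured binding of ACVR2A-specific monoclonal antibodies to human and mouse ACVR2A. Biotinylated goat anti-human kappa light chain served as positive control and human Fc as negative control.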

human ACVR2A = molecular target: T2, human ACVR2A (human, UniProt P27037 20-135, limits assumed); test: ELISA
T2 construct: coated antigen of the initial ELISA; also called activin receptor, type II A
T2 sequence (P27037 20-135 limits assumed): as the sequence (P27038 20-135 limits assumed) above, with R20K, I73V counted along it
Summary of the method: as §1

[1] = molecular target: T3, biotinylated goat anti-human kappa light chain; test: ELISA, positive control
T3 construct: positive control of the ELISA
Protocol: The binding of ACVR2A-specific monoclonal antibodies to human ACVR2A, mouse ACVR2A, biotinylated goat anti-human kappa light chain (positive control) and human Fc (negative control) were determined by ELISA.
Note: test concentration or dose not given here.

| optical density (mouse ACVR2A) [OD] | optical density (human ACVR2A) [OD] | optical density [1] [OD] | Binder |
| --- | --- | --- | --- |
| 2.81 | 2.54 | 3.43 | B1 |
| 3.03 | 3 | 3.44 | B2 |
| 2.25 | 2.05 | 3.45 | B3 |
| 3.25 | 3 | 3.51 | B4 |
| 2.45 | 2.39 | 3.58 | B5 |
| 3.06 | 2.78 | 3.44 | B6 |
| 1.94 | 1.63 | 3.48 | B7 |
| 3.39 | 3.3 | 3.67 | B8 |
| 3.55 | 3.28 | 3.61 | B9 |
| 3.57 | 3.71 | 3.61 | B10 |
| 0.827 | 0.825 | 2.7 | B11 |
| 2.78 | 2.81 | 3.48 | B12 |
| 3.49 | 3.3 | 3.58 | B13 |
| 3.08 | 2.92 | 3.56 | B14 |
| 2.91 | 2.9 | 3.62 | B15 |
| 2.99 | 2.94 | 3.58 | B16 |
| 1.29 | 1.02 | 3.3 | B17 |
| 2.45 | 2.08 | 3.69 | B18 |

| optical density (mouse ACVR2A) [OD] | optical density (human ACVR2A) [OD] | optical density [1] [OD] | Binder |
| --- | --- | --- | --- |
| 3.2 | 3.1 | 3.68 | B19 |
| 2.43 | 2.26 | 3.38 | B20 |
| 2.2 | 1.95 | 3.34 | B21 |
| 3.13 | 2.46 | 2.27 | B22 |
| 2.72 | 2.54 | 3.02 | B23 |
| 3.17 | 3.14 | 3.66 | B24 |
| 3.05 | 3.3 | 3.45 | B25 |
| 3.11 | 3.13 | 3.52 | B26 |
| 3.56 | 3.55 | 3.42 | B27 |
| 3.12 | 2.98 | 3.49 | B28 |
| 1.25 | 1.14 | 3.3 | B29 |
| 2.4 | 2.56 | 3.48 | B30 |
| 2.91 | 3.07 | 3.26 | B31 |
| 1.35 | 1.24 | 3.08 | B32 |
| 2.27 | 2 | 3.59 | B33 |
| 1.55 | 1.29 | 3.65 | B34 |
| 2.54 | 2.41 | 3.58 | B35 |
